Reference: the RNAGym collection of RNA variant scans (doi:10.7554/elife.80360)

B1: Hammerhead Ribozyme (parent)
chain: ACCGGAUGUGCUUUCCGGUCUGAUGAGUCCGUGAGGACGAAACAG

Variants of: B1
Test: self-cleavage, relative activity (ratio to wild type); higher = more cleavage; co-transcriptional

Row | Variant | self-cleavage
1 | ACCGGAUGUGCUUUCCGGUCUGAUGAGUCCGUAAGGACGAUACAG [G33A A41U] | 0.428
2 | ACCGGAUGUGCUUUACGGUCUGAUGAGUCCGUGAGGACGAAAGAG [C15A C43G] | 0.337
3 | ACCGUAUGUGCUUUCCGGUCUGAUGAGUCCGUGAGGACGACACAG [G5U A41C] | 0.402
4 | ACCGGAUGUGCUUUCCGGCAUGAUGAGUCCGUGAGGACGAAACAG [U19C C20A] | 0.329
5 | ACCGGAUGUGCUUUCCGGUCUGAUGAGUCCGUGUGUACGAAACAG [A34U G36U] | 0.565
6 | ACCGGAUGUGUUUUCCGGUCUGGUGAGUCCGUGAGGACGAAACAG [C11U A23G] | 0.39
7 | UCCGGAUGUGCUUUCCGGUCUGAUGAGUCCGUGAGGACUAAACAG [A1U G39U] | 0.347
8 | ACCGGAUGUGUUUUCCGGUCUGAUGAGUCCAUGAGGACGAAACAG [C11U G31A] | 1.13
9 | ACCGCAUGUGCUUUCCGGUCUGAUGAGUCCUUGAGGACGAAACAG [G5C G31U] | 1.02
10 | AACGGAUGUGCUUUCCCGUCUGAUGAGUCCGUGAGGACGAAACAG [C2A G17C] | 0.359
11 | ACCGGAUGUGCUUUCCGGUCUGAUGUGUCCGAGAGGACGAAACAG [A26U U32A] | 0.846
12 | ACUGGAUGUGCUUUCCGGUCUGAUGAGUCCGUGACGACGAAACAG [C3U G35C] | 0.625
13 | ACCGGAUGUGCGUUCCGGUCUGAUGAGUCCGUGAGGACGAAGCAG [U12G A42G] | 0.356
14 | ACCGGAUGUGCUUUCCGGUCUGAUGAUUCCGUGAGGUCGAAACAG [G27U A37U] | 0.521
15 | ACGGGAUGUGCUUUCCGGUCUGAUGAUUCCGUGAGGACGAAACAG [C3G G27U] | 0.265
16 | ACCGGAUGUGCUUUCCGGUCUGAUGAGUCCGCGAGGACGAAACGG [U32C A44G] | 1.32
17 | ACCGGAUGUGCUUUCCGGUCUGAUGAGUCCUUGAGGACGAAUCAG [G31U A42U] | 0.295
18 | ACCGGAUGUGCUUUUCGGCCUGAUGAGUCCGUGAGGACGAAACAG [C15U U19C] | 0.581
19 | ACCGGAUGUGCUUUCCGGUCUUAUGAAUCCGUGAGGACGAAACAG [G22U G27A] | 0.305

Row | Variant | self-cleavage
20 | UCCGGAUGUGCUUUCCGGUCUGAUGAGUCCGUGAGGACGCAACAG [A1U A40C] | 0.387
21 | ACCGGAUAUGCUUUCCGGUCUGAUGAGUCCGUGAGGACGAAACAA [G8A G45A] | 0.704
22 | ACCGGAUGUGCUUUCCGGUCUGAUGAUUCCGUGAGCACGAAACAG [G27U G36C] | 0.304
23 | ACCGGAUGCGCUUUCCGGUCUGAUGAGUCCGUGAGGACGAAUCAG [U9C A42U] | 0.345
24 | ACCGGAUGUACUUUCCGUUCUGAUGAGUCCGUGAGGACGAAACAG [G10A G18U] | 1.13
25 | ACCGGAUGUGCUUUCCGGUCUGAUGAGUCGGUGAGGACGAAACAC [C30G G45C] | 0.608
26 | ACCGGAUGUGCUUUCCGGUCUGCUGAGUCCGUGAGGACGAAAUAG [A23C C43U] | 0.325
27 | ACCGCAUGUGCUUUCCGGUCUGAUGAGUCCGGGAGGACGAAACAG [G5C U32G] | 0.452
28 | ACCGGAUGUGCUUUCCGGUCUGAUGAGUCCGUGAGGACGAAAAAU [C43A G45U] | 0.68
29 | ACCGGAGGUGCUUUCCGGUCUGAUGAGUCCGUGAGGACCAAACAG [U7G G39C] | 0.293
30 | ACCGGAUGUGCUUUCCGGUCUGAUGAUUCCGUGAGGAGGAAACAG [G27U C38G] | 0.597
31 | ACCGGAUGUGCUUUCCGGUCUGAUGAGUCCGUGAGGAGGAACCAG [C38G A42C] | 0.226
32 | ACCGGAUGUGCUUACCGGUCUGAUGAGUCCGUGAGGAUGAAACAG [U14A C38U] | 0.926
33 | ACCGGAUGUGCUUCCCGGUCUGAUGAGCCCGUGAGGACGAAACAG [U14C U28C] | 0.706
34 | AACGGAUGUGCUUUCCGGACUGAUGAGUCCGUGAGGACGAAACAG [C2A U19A] | 0.308
35 | ACCUGAUGUGCUUACCGGUCUGAUGAGUCCGUGAGGACGAAACAG [G4U U14A] | 0.469
36 | ACCGGAUGCGCUUUCCGGUCUGAUGAGUCCGUGAAGACGAAACAG [U9C G35A] | 0.814
37 | ACCGGAUCUGCUUCCCGGUCUGAUGAGUCCGUGAGGACGAAACAG [G8C U14C] | 0.785
38 | ACCGGGUGUGCUUUCCGGACUGAUGAGUCCGUGAGGACGAAACAG [A6G U19A] | 0.278

Row | Variant | self-cleavage
39 | ACCGGAUGUGCUUUCCGGUCUGAUGAGUCCGUUAGGACGAAACGG [G33U A44G] | 1.44
40 | ACCGGAUGUGCUUUCCGGUCUGAUGAGUCCGUGAGGUCGAAACAA [A37U G45A] | 0.468
41 | ACCGGAUGUGCUUUCCGGACAGAUGAGUCCGUGAGGACGAAACAG [U19A U21A] | 0.292
42 | ACCGGAUGUGGUUUCCGGUCUAAUGAGUCCGUGAGGACGAAACAG [C11G G22A] | 0.304
43 | ACCGGAUGUGCUUUCCGGUCUGAUGAGUCCGUAAGGACGCAACAG [G33A A40C] | 0.792
44 | ACCGGAUGUGCUUUCCGGUCUGAUGAGUCCGUGAGGGCGAACCAG [A37G A42C] | 0.342
45 | ACCGGAUGGGCUUUCCGGUCUGAUGAGUCCGUGCGGACGAAACAG [U9G A34C] | 0.579
46 | ACCGGAUGUGCUUACCGGUCUGAUGAGUCCGUGAGGACGAAACUG [U14A A44U] | 0.417
47 | ACCGGAUGUGCUUUCCGGUCUGAUGAGACCGUGAUGACGAAACAG [U28A G35U] | 0.489
48 | ACCGGAUGUGCUUUCCGGACUGCUGAGUCCGUGAGGACGAAACAG [U19A A23C] | 0.346
49 | ACCGGAUGUGCUUUCCGGUCUUAUGAGUCCGUGAGGACGAAACUG [G22U A44U] | 0.335
50 | ACCGGAUGUGCUUUCCGGUCUGAUGGGUCCGAGAGGACGAAACAG [A26G U32A] | 0.373
51 | ACCGGUUGUGCUUUCCGGUCUGAUGAGUCCGUGAGGACGAAACGG [A6U A44G] | 1.12
52 | ACCGGAUGUGCUUUCCGGUUUGACGAGUCCGUGAGGACGAAACAG [C20U U24C] | 0.508
53 | ACCGGAUGUGCUUUCCGGUCUGCUGAGCCCGUGAGGACGAAACAG [A23C U28C] | 0.352
54 | CCCGGAUGUGCUUUCCGGUCUGAUGAGUCCGUGAGAACGAAACAG [A1C G36A] | 0.394
55 | ACCGGAUGUUCUUUCCGGUCUGAUGAGUCCGUGAUGACGAAACAG [G10U G35U] | 0.844
56 | ACCGGAUGUGGUUUCCGGUCUGAUGAGUACGUGAGGACGAAACAG [C11G C29A] | 0.786
57 | ACCGGAUGUGCUUUCCGGUCUGAUGAGUCCGUAAGGACGAAACUG [G33A A44U] | 0.98
